According to patent US20240124560A1:

Columns and labels:
full-length MPER peptide = assay: ELISA on peptide MPER (654-683), antibody titrated
[1] = molecular target: HIV-1 Env of pseudovirus NIH-084_X1254 c3 (clade G) (HIV-1); assay: cell-based or functional assay
[2] = molecular target: HIV-1 Env of NIH-114_T257.31 (HIV-1); assay: cell-based or functional assay
[3] = molecular target: HIV-1 Env of pseudovirus NIH-003_SC422661.8 (HIV-1); assay: cell-based or functional assay
[4] = molecular target: envelope protein of control pseudovirus NAC_AMLV; assay: cell-based or functional assay
[5] = molecular target: HIV-1 Env of pseudovirus NIH-016_SC05.8C11.2344 (HIV-1); assay: cell-based or functional assay
[6] = molecular target: HIV-1 Env of NAC_BaL.26 (HIV-1); assay: cell-based or functional assay
[7] = molecular target: HIV-1 Env of NIH-015_62357.14.D3.4589 (HIV-1); assay: cell-based or functional assay
[8] = molecular target: HIV-1 Env of pseudovirus NIH-098_89.F1 2 25 (clade CD) (HIV-1); assay: cell-based or functional assay
[9] = molecular target: HIV-2 Env (parental virus of the chimeras) (HIV-2); assay: cell-based or functional assay
[10] = molecular target: HIV-2 C4 chimera Env (HIV-2 (HIV-1 MPER) chimera); assay: cell-based or functional assay
[11] = molecular target: HIV-1 Env of pseudovirus NIH-031_HIV-16055.2.3 (HIV-1); assay: cell-based or functional assay
[12] = molecular target: HIV-1 Env of pseudovirus NIH-075_CNE8 (HIV-1); assay: cell-based or functional assay
[13] = molecular target: HIV-1 Env of pseudovirus NIH-059_Q461ENVe2 (HIV-1); assay: cell-based or functional assay
[14] = molecular target: HIV-1 Du156.12 Env (HIV-1 Du156.12); assay: cell-based or functional assay
[15] = molecular target: HIV-1 Env of NAC_SS1196.1 (HIV-1); assay: cell-based or functional assay
[16] = molecular target: HIV-1 Env of pseudovirus NIH-096_6952.v1.c20 (HIV-1); assay: cell-based or functional assay
[17] = molecular target: HIV-1 Env of NIH-026_ZM135M.PL10a (HIV-1); assay: cell-based or functional assay
[18] = molecular target: HIV-1 Env of NIH-076_CNE5 (HIV-1); assay: cell-based or functional assay
[19] = molecular target: HIV-1 Env of pseudovirus NIH-030_HIV-0013095.2.11 (HIV-1); assay: cell-based or functional assay
[20] = molecular target: HIV-1 Env of pseudovirus NIH-069_C1080.c03 (HIV-1); assay: cell-based or functional assay
[21] = molecular target: HIV-1 Env of pseudovirus NIH-010_1054.07.TC4.1499 (HIV-1); assay: cell-based or functional assay
[22] = molecular target: HIV-1 Env of NIH-005_TRO.11 (HIV-1); assay: cell-based or functional assay
[23] = molecular target: HIV-1 Env of NIH-097_6811.v7.c18 (HIV-1); assay: cell-based or functional assay
[24] = molecular target: HIV-1 Env of isolate COT6, mutant D674S (HIV-1); assay: cell-based or functional assay
[25] = molecular target: HIV-1 Env of pseudovirus NIH-011_1056.10.TA11.1826 (HIV-1); assay: cell-based or functional assay
[26] = molecular target: HIV-1 Env of NAC_92TH021 (HIV-1); assay: cell-based or functional assay
[27] = molecular target: HIV-1 Env of isolate COT6, mutant D674T (HIV-1); assay: cell-based or functional assay
[28] = molecular target: HIV-1 Env of NIH-072_R3265.c06 (HIV-1); assay: cell-based or functional assay
[29] = molecular target: HIV-1 Env of isolate NIH-089_3016.v5.c45 (HIV-1); assay: cell-based or functional assay
[30] = molecular target: HIV-1 Env of isolate COT6, mutant D674E (HIV-1); assay: cell-based or functional assay
[31] = molecular target: HIV-2 C1 chimera Env (HIV-2 (HIV-1 MPER) chimera); assay: cell-based or functional assay
[32] = molecular target: HIV-1 Env of pseudovirus NIH-022_ZM233M.PB6 (HIV-1); assay: cell-based or functional assay
[33] = molecular target: HIV-1 Env of pseudovirus NAC_92RW020 (HIV-1); assay: cell-based or functional assay
[34] = molecular target: HIV-1 Env of isolate COT6 (wild-type) (HIV-1); assay: cell-based or functional assay
[35] = molecular target: HIV-1 Env of pseudovirus NIH-097_6811.v7.c18 (HIV-1); assay: cell-based or functional assay
[36] = molecular target: HIV-1 Env of pseudovirus NIH-023_ZM249M.PL1 (HIV-1); assay: cell-based or functional assay
[37] = molecular target: HIV-1 Env of NIH-103_0815.v3.c3 (HIV-1); assay: cell-based or functional assay
[38] = molecular target: HIV-1 Env of NIH-079_BJOX010000.06.2 (HIV-1); assay: cell-based or functional assay
[39] = molecular target: HIV-1 Env of pseudovirus NIH-044_ZM247F.F7 (HIV-1); assay: cell-based or functional assay
[40] = molecular target: HIV-1 Env of pseudovirus NIH-080_BJOX025000.01.1 (HIV-1); assay: cell-based or functional assay
[41] = molecular target: HIV-1 Env of isolate NIH-098_89.F1 2 25 (HIV-1); assay: cell-based or functional assay
[42] = molecular target: HIV-2 C3 chimera Env (HIV-2 (HIV-1 MPER) chimera); assay: cell-based or functional assay
4E10-specific peptide = assay: ELISA on peptide MPER (671-683), antibody titrated

**Q.** For 4E10 (antibody), which EC50 (read off the curve) (full-length MPER peptide) is on record?
**A.** 0.03 µg/mL

**Q.** What about the IC50 (µg/ml), TZM-bl cell neutralization assay, pseudovirus [1] of the same substance?
**A.** 2.88 µg/mL

**Q.** And the IC80 neutralization [2]?
**A.** 4.71 µg/mL

**Q.** What about the neutralization IC50 [3] of the same substance?
**A.** 2.78 µg/mL

**Q.** What about the IC50 (µg/ml), TZM-bl cell neutralization assay, control pseudovirus [4] of the same substance?
**A.** > 50 µg/mL

**Q.** And the IC80 (µg/ml), TZM-bl pseudovirus neutralization [4]?
**A.** > 50 µg/mL

**Q.** What about the neutralization IC50 [5] of the same substance?
**A.** 0.828 µg/mL

**Q.** What about the IC80 neutralization [6] of the same substance?
**A.** 17.1 µg/mL

**Q.** And the IC80 neutralization [7]?
**A.** 11.6 µg/mL

**Q.** And the IC50 (µg/ml), TZM-bl cell neutralization assay, pseudovirus [8]?
**A.** 5.11 µg/mL

**Q.** And the IC50 (µg/ml), neutralization of HIV-2 [9]?
**A.** > 10 µg/mL

**Q.** And the IC50 (µg/ml), neutralization of chimeric virus [10]?
**A.** 1.41 µg/mL

**Q.** And the neutralization IC50 [11]?
**A.** 1.59 µg/mL

**Q.** What about the neutralization IC50 [12] of the same substance?
**A.** 0.087 µg/mL

**Q.** What about the neutralization IC50 [13] of the same substance?
**A.** 2.33 µg/mL

**Q.** And the IC50 (µg/ml), neutralization of HIV-1 Du156.12 [14]?
**A.** 0.101 µg/mL

**Q.** And the IC80 neutralization [15]?
**A.** 3.96 µg/mL

**Q.** And the neutralization IC50 [16]?
**A.** 0.721 µg/mL

**Q.** And the IC80 neutralization [17]?
**A.** 0.936 µg/mL

**Q.** And the IC80 neutralization [18]?
**A.** 5.9 µg/mL

**Q.** What about the neutralization IC50 [19] of the same substance?
**A.** 0.001 µg/mL

**Q.** What about the neutralization IC50 [20] of the same substance?
**A.** 0.328 µg/mL

**Q.** And the neutralization IC50 [21]?
**A.** 1.35 µg/mL

**Q.** What about the IC80 neutralization [22] of the same substance?
**A.** 3.08 µg/mL

**Q.** And the IC80 neutralization [23]?
**A.** 17 µg/mL

**Q.** What about the Fold increase in IC50 relative to wild-type COT6 [24] of the same substance?
**A.** 1.65 fold

**Q.** And the neutralization IC50 [25]?
**A.** 0.688 µg/mL

**Q.** What about the IC80 neutralization [26] of the same substance?
**A.** 1.38 µg/mL

**Q.** What about the Fold increase in IC50 relative to wild-type COT6 [27] of the same substance?
**A.** 25 fold

**Q.** And the IC80 neutralization [28]?
**A.** 2 µg/mL

**Q.** What about the IC80 (µg/ml), TZM-bl pseudovirus neutralization [29] of the same substance?
**A.** 3.73 µg/mL

**Q.** What about the Fold increase in IC50 relative to wild-type COT6 [30] of the same substance?
**A.** 10 fold

**Q.** What about the IC50 (µg/ml), neutralization of chimeric virus [31] of the same substance?
**A.** 0.8 µg/mL

**Q.** What about the neutralization IC50 [32] of the same substance?
**A.** 1.05 µg/mL

**Q.** What about the neutralization IC50 [33] of the same substance?
**A.** 2.14 µg/mL

**Q.** And the Fold increase in IC50 (wild-type COT6, the reference) [34]?
**A.** 1 fold

**Q.** What about the neutralization IC50 [35] of the same substance?
**A.** 2.74 µg/mL

**Q.** And the neutralization IC50 [36]?
**A.** 1.44 µg/mL

**Q.** And the IC80 neutralization [37]?
**A.** 6.31 µg/mL

**Q.** What about the IC80 neutralization [38] of the same substance?
**A.** 1.73 µg/mL

**Q.** And the neutralization IC50 [39]?
**A.** 1.85 µg/mL

**Q.** And the neutralization IC50 [40]?
**A.** 0.377 µg/mL

**Q.** And the IC80 (µg/ml), TZM-bl pseudovirus neutralization [41]?
**A.** 21.7 µg/mL

**Q.** And the IC50 (µg/ml), neutralization of chimeric virus [42]?
**A.** > 10 µg/mL

**Q.** What about the EC50 (read off the curve) (4E10-specific peptide) of the same substance?
**A.** 0.02 µg/mL
